1 molecule from patent CN114989309A can be followed below.

The experiment addresses T1, 抗原表位融合多肽AFBMG.
T1 sequence: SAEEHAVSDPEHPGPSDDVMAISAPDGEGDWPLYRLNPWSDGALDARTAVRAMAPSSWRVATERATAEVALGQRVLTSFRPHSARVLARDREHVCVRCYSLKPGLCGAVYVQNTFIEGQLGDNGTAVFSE
In words: colloidal gold test strip with gold-labelled Nano-AF; dilution series of AFBMG from 1 mg/mL, three repeats.

B1: 黄曲霉毒素纳米抗体Nano-AF (VHH)
VHH: QLQLGGSGGGLVQPGGLVQACAASGSTFAGFRAMGWRQAFRQAREFVAAITWSGASTYYTDSVKGRFTISRDNAKNTVYLQMNNLESLKPEDTAVYYCAGFMYYASNYCRYWGQGTQVTVSS
As for B1, the 最低检测限 is 10 ng/mL.
